Assay: soluble fraction after stress (log2 fold change); higher = more stays soluble; pooled small domains, quantitative proteomics
Conditions: stress: 50 degC
In short: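 The measure of aggregation propensity here is the base-two logarithm of the fold change in the soluble amount of each protein after stress. A higher value means more of that protein stays in solution. Stress was applied at 50°C to pooled libraries of small protein domains, read out by high-throughput quantitative proteomics.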

| Sequence | soluble fraction (log2) |
| --- | --- |
| HMSTNDIFISGDKLVLKNTTGQMDVFDMAGRKVLSSTNNVSEMNVSSLPKGVYVVSASIGGSKMKAKVYK | 0.527 |
| HMVYVPTKAEVSQQFQDASKARFDERYAIVELADGRRTMAPLAFLTKADHAWLKQLASTSPLPKGK | 0.0196 |
| HMQPIQPNQAKYLDGLSSKYKGKGNHSQAAQLTALRDALNAGDHAKAREIYDKLDYEPQAEAAH | 0.351 |
| HMDVDKQLDQLLAAMIPDKSLRQTIKTKAFNELVDNELADKDISSWTKQTMDVFMTRAEDMFGAM | -0.136 |
| HMSDRFLDQEGVALSTLRPSGTVVLDSGEHLDVVTRGEFIEQGERVKVIKAESTWYVVEQIN | -0.268 |
| HMFDDLSTNLRDLAHNYIEKYSPSKQQLKVFLLKKYLMKFKGSKTKKEISEIIDKIISNLEENKYLNDEL | 0.0632 |
| HMIGDYALILNIKGGSDWYLGNRVELLFTDGTSKIVTTDKDYNAKKDMVPTQIVTYKVNDNGEYSLKALPT | -2.01 |
| HMSTSLIEFTIDRNNSIANKMIMDANIPEDILVVMIKRNGDVFVPNGSTKILPGDILVLSGNKLKY | -0.534 |
| HMTDTDVLSSRLSALSSGRTSAVRLRDGVLSLVLDVGGLSIEARKAMTTAIESTARATPGVEAVRIAET | -0.0141 |
| HMHAPIAELKKVFKEEFADQEVTVRQLAGSVLLSGNVKTAELRENLESVAKQFFPRVINNLKLI | -0.000214 |
| HMLPGWMETKFTANVSENTKNRTLEEHVLKMLNNKESAAEFIIFLHEKMMSVSGQVFQLDSR | 0.149 |
| HMQPETIEDATNLYLEAARATLQLIEQNNVIARDVKRLLEHLDNDMARIETLLAEMLSRRDHWLRHIH | -0.12 |
| HMDVSASEVGLTGRQTDVLSLMVKGRSNRDIAELLGLSEGTVKIHITAIFKALGVASRTQALVAAARLGLK | -0.156 |
| HMNQKVRQLLSQAQAEMERKNYKQAIKLLDQALAIEPHSGELHFMKGYAWMSMGEFEKALESLYEARNYA | -0.399 |
| HMNEFAYLIKISPEHNNNRYYRMVAEGDNFRIEMGRIGASPVQMKRPMYLWNETYQKKLQEGYTDRTSYTS | -1.92 |
| HMPEFKDMLKFFRMREHLSQSELAEKLGISASTVSMYEVGRRQPDFETEEKIADFFNTDLNTLRG | -0.39 |
| HMNKETYIDALERKLWDRLDPDQLRDIISYYKDYFAMEAAKGISEEETIRKLGDPALLAKSILAAE | -0.335 |
| HMGEKTLSEKVYDRLKELIMDGELERGTKITETSIAKMFDVSPTPVREAFRKLASDGLIEVASWKGVIVKG | -0.0886 |
| HMSDRLRPGDMVVVVGKKKRYPVFSAFDIDFVEAGDVGKVLTVKREEVVVGFPKKGEGTFTPSELNIAH | -0.597 |
| HMADTPQAYIRQMVQEAGADGIMLSTITDRLRARFKDFKVRDLGYAQMRQYMASTGTYDLEKSGRNFRVHL | -0.935 |
| HMSGSPREQAESEYRKAIAAVNQGRVSEATESLRAALRLDAFQVAARQLLVKLLLEAKNQDEAIQVLR | -0.463 |
| HMNVAVPTPADKRKVRVMKADINAKLRVNDANGAYAVYEELKEWVTLKGFTEWNDDLSKLSETMGSMKRKV | -0.0289 |
| HMKFTSEKDISLLELVKAKMGFVSNTKARNVIKIGQIMVSGKVIKIPSTLIKPGTEVELARRV | -1.66 |
| HMSEQVTMIDVEGKTETEAKKALEDLGLKVEITYESADAAAGTVIGQDVKAGSTVSEGSRVTLTVSGQ | 0.0626 |
| HMTGVEAIERYLASGVIPGVGPVLAKRLVERFGARTLEVIEDSPRRLTQVPGIGRQKARQIHQALKAQRE | -0.25 |

| Sequence | soluble fraction (log2) |
| --- | --- |
| HMSFDENEALRKALDVFWEKGYDGTSLSDLTEAMGINKPSLYATFGNKDQLFLKAIEMYENR | -0.992 |
| HMLSYDDTVVIGRNLLENAMKQKNIALEQLTDEVLARLAKELQVESVEAMYAGIGSGKRPSSFIINRLEAH | -0.569 |
| HMKYNGDRPVFNDDVAWAKWMLENPAKITSHDKENLSSMLKKPEVVMLFEAEDLSVPDLRTLAKE | 0.236 |
| HMISLPSYIREEATEVYNRLHDLGLEYTSLDVNDDSIPKGYVVRTVPEAGASVPAGQVVTVYVSLG | -0.446 |
| HMEPREEFTFADLRANGLNGTAAAAGRRAALGAALGIGYGNAKQFLRRLNHYGVTRSEWEAALADLDE | -0.419 |
| HMIEGEQVRLLRLLERQEGGMLPLGDKSPASDILLLTGMSKKTFKMAVGALYKAQMITMTPTSIKLVK | -0.684 |
| HMQLTVAVLIKNISKGQVISQGFLGFEARPERQIRGAYTNISEVLGRKAKSNIAVGTILKARHLDT | -2.94 |
| HMRKNVAGITPNVYGMGLKDAVYLLENAGYRVKVNGRGNVVRQSINSGTRIIKGQLIILDLD | -2.73 |
| HMNGIFEYSDAKKVPSLVEIENAYRRARVNGAEKFAVIINGEYFGYNPQKRGIYKLNDGEYQIL | -0.0706 |
| HMGRQVTVPNVTGMLVEEARAAISEAELWVDSPRAVQGEVTRQEPARGERLSPGQEVRIYTES | 0.31 |
| HMKTFQSYQTTSMSNVNLRKRANGTSTILKRIKVGDTVTVVGKSGNYYQIQFDGKEGYALIKYIDGTDSGA | -0.247 |
| HMGMETQLSPKEKSIYTIIQNRPNIQSGEVSEKLAIPLPTVKRILSDLINKGLIEKQGSGRNVSYTI | 0.254 |
| HMDSEEVYQMTKHKMDAAQISVAKRIHINLVLVKLLELHHLGYDLRHYHAQHHAFIKRLNLPEYFRFD | -1.66 |
| HMDAQNLQDQLFGFLKANPTQAYPAQTLADGLRLDDANAFTKVVQALAALERGGKVKVNEEGAFQYDAEK | 0.0478 |
| HMEYDEVVVVKQIIPKGKNTMVAHLKHLKEHGETGFLKQAVGYLKLHASEIPFSVDAVISEVH | -0.361 |
| HMSMFAQQLKDLRKKIPGLTQTDMAKKLGIAKTTYASYEQGKRTPDIETQNKIADFFNVSLDYLHG | -0.0838 |
| HMKIKLQATEQQRKTLDELYVQLKKLEPTSKEDLSLLYRLENPHLVSKQEAQGLISIAIGRVGSLAIEQQ | -0.27 |
| HMVIDFYDPQTKVIHEIKKSSAKEEAHVWQVKYYIYLFEKEEIMGVKGVLEYPLLREIVSVNF | 0.187 |
| HMVGNYYDILGVPETATQDAIKKAFRSLAQQHHPDKNPDDPGAEAMFKKVSEAYQVLSDPDKRQTYDASL | 0.00894 |
| HMLKEKETRALANFTNKFFGLDISEDLKPIALSELSKFKKTHKISNLEEFINSFQYDFQNEKILSLLDIFL | -0.994 |
| HMLNMTLGDRIRSRREELRMSQEELATRLGYKSRSTIAKIESGENDLTQSKIVAFAEALSTTARWLLDY | -1.04 |
| HMPNTLAGIERYLGSGMVKGIGPVYASRLVSAFGTAVFDVIEQTPERLREIDGIGEKRTRKITSGWADQ | -0.127 |
| HMATPTMEDYIEVIYSLVKTKGYARSADIAEKLEVYPSTVTKMLKKLDAEGYIVYEKYRGIALTDIGKKMG | -1.73 |
| HMSYSYIYNYALKVKMDISSTGGKKPYAYYYYDHSYKLAEEILSLSEETESIELQNKYDELKDFYENP | -1.32 |
| HMLSDSDTLRDLYLSEQIWNVGDLIRVKGKNDDTHPSWEIIRRGTNYITAIDENYKSHKVWLHDIDI | -1.17 |

| Sequence | soluble fraction (log2) |
| --- | --- |
| HMYEENFSKIKNDISTIFKRHKISFTNNFISHLSSVFNTDSLTNKMELEKLDSFLINNKKVTENELLKFII | -0.025 |
| HMVKNTIHVDLKGEVNKPGVYEVEEGTIVNDLITLANGFTKNAYQDNINLSKKLTDEMVIVVSKKGS | 0.337 |
| HMSDLFKYSPYKTLTEEQYKITYQIIERLKTDLSNGIPRISIIDGGAGTGKSILGIFLLKLLVDAQN | 0.343 |
| HMLINFPNKLKRLRLANNLTQQELANILETTKQAVSSYESGKSTPSLNSLIKLSEHFNISLDSLVFD | 0.183 |
| HMLPNLWVMGPGDHLWRVAEVAMTKHLGRPVANHEIDGYWRRLVALNRESLIDPDNPDLVFAGQVIELPPF | -2.32 |
| HMVPPELEFLQSLMKIEDISELTAAIENNRDAVTDDFKEMLETVIENISGAPDTDPKLLERLKTIRTVLA | 0.0197 |
| HMEKTIQIYDNIIIKDFAEKMEVSPSQVITKLIGLGVMANLNQPIDINSAVIVGKEFGFNVESM | -0.674 |
| HMQDTVKNVFGAFTIFTDKPFAIGDTINVNGLEGTVVDVGMRSTQILGYDRRITSYPNYKITDSSIVNISS | -0.0701 |
| HMNSKQELAYQTIRARIVDGSYGPGYRIVIDEVARELGVSPIPVREAVRRLEAEGLITYTRHAGARVVA | -0.184 |
| HMEALSAREIEILQALETGASNRELAKMLFISEATVKTHLVHIYQKLGVGTRTAAITEARERRV | -1.64 |
| HMPGEIKKIPINSISYQDLKQHPYFDAYLAKQVIKYRETKGRIENIEQFREATRAYQSLIEKVTPYLDFE | 0.14 |
| HMTNVLSEQESKLLERMNKAGLNAEITVKKAAQILNLSESAARNVLNRLVGKGYLTVDTSRLPFLFQR | -0.0793 |
| HMVDGTPALTDLKKVSKPGRRHYTGSQEIPRVLNGLGISIVSTSKGIMTGAQARRQKVGGELLAFV | 0.16 |
| HMEKINLIIEEDNNLRLDKVIAMQLQELSRTQIQDMINQGLVLVNQKKEKASYKTKLNDEIEITILD | -1.37 |
| HMEFVEERRNRMLDYIGENKRADVPELARHFDVTEVTIRRDLLILEQDGKLIRTHGGAMINR | -0.433 |
| HMNPSRPASKEELLGLFEHLERALDAVTFFRPAEKKPVVVQTLRAMLTKASFTEQDIRTMRGVIAALEN | -1.5 |
| HMGDGAWQQGEGGRWWYKYNNGTYPKDRVVTIGGKKYGFDSEGWMLSDTTKAFGGTTYSFAADGVATAQA | -0.0259 |
| HMSDFSNLNLLELNSSELDLLLRRASSQGLTQMDLLKMARSQGLSEADLIKVKGKIDTSESIKR | -0.0148 |
| HMEKPAQDVLASHREWMGEMIKAEHMTAKQVWRLLRERADIGVSYPTVKRYLRAHFQFGGPS | -1.28 |
| HMIKRNPLDEIEGVGPGRKKALLHAFGSAKGVSRASVVDLVKVEGVSQALAERIHDFFHPATR | -0.113 |
| HMKDTNENLMKMLALLIHAAKIDENYSDEEKELIVNFAEMSSKENLNREQILSIIKSAEEYE | -0.702 |
| HMNYKNAIGQVGSVYVPIPPNREGLGQIEVKVQSRVSTVRAVSDHSERLENRVAVRVIELVDDRTLLVEKL | -0.839 |
| HMSKNIRQQFLDVLPKTFDRNQYLETAKKLSINAKTAEGYIKKFVEANLLDHPKHNHYINLKKVEEVETK | 0.229 |
| HMDREQLELYVGEVRVLQVGELRRIAIGNGKVLQASALDRGQLLLIPEAPGQSVLYLWTRDGTERHLSISV | -0.203 |
| HMRPSGTAGILRYLSSGAIRGIGATTAQRLVSEFGEKTLDVMENEPERVAMLKGISKSKAEDFSLQLKQS | 0.0105 |

— the domain aggregation screens of Martell et al. (2025)
